The record followed here is paper PMC7613103 (Science signaling, 2020).

Changes are numbered by the printed parent chain. In names and notes the source's numbering stands.

One data set has as its target Cys95 (UniProt position 95, ANGEICVNVLK). Put plainly: chemical modification. The settings on record: 10 °C; 100 mM NaCl; Free reduced enzyme, 14.4 μM, no ubiquitin or other ligand.
The target in data set [1] is UBE2S^UBC (UBC domain of UBE2S, residues 1-156) (human) (UniProt Q16763). Kind of data set: cross-linking + SEC-MALS. In general terms: In gel filtration, larger molecules generally elute earlier.
The next data set deals with Cys118 (UniProt position 118, LLTIKCLLIHP). Put plainly: chemical modification. The settings on record: 10 °C; 100 mM NaCl; Free reduced enzyme, 14.4 μM, no ubiquitin or other ligand.
Data set [2] addresses T1, UBE2S (full-length, untagged, purified) (human), Q16763.
T1 chain: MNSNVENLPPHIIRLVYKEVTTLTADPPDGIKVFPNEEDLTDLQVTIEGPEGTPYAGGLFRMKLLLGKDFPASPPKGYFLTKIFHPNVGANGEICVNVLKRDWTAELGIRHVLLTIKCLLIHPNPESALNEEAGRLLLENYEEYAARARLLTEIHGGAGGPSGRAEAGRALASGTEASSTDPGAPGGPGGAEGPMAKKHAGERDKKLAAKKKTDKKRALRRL
Kind of data set: cross-linking + SEC-MALS. The conditions noted are these: remark: other sources report otherwise.

The data set “cross-linking” concerns the molecule itself. Put plainly: cross-linking.

In turn, “Ubiquitin-conjugating enzyme E2 S (UBE2S) C118S variant (Homo sapiens; C118S)” showed a pKa with Cys95 of 6.4 ± 0.2. Turning to “UBE2S^UBC (UBC domain of UBE2S, residues 1-156) (from UniProt Q16763 1-156) (domain or fragment)”, the stoichiometry N in data set [1] came out at 2. For the molecule “Ubiquitin-conjugating enzyme E2 S (UBE2S) C95S variant (Homo sapiens; C95S)”, the pKa with Cys118 worked out at 9.4 ± 0.1.

B1: UBE2S (full-length, untagged, purified), Q16763 1-222 (enzyme)
chain: T1 chain
In the case of B1, in data set [2], the stoichiometry N worked out at 2.

B2: UBE2S C95S (full-length) (enzyme)
chain: T1 chain with C95S
On to B2, for which the binding result in “cross-linking” is reported as “binds”.

For orientation: pKa means the pH at which an ionisable group is half protonated. Low values mean a group that gives up its proton readily, high ones a group that holds its proton tightly. A word on the stoichiometry N: it is a count of units in the complex or per binding partner.
